Results on 131 substances are retold here after the supplement of paper PMC12042874.

± gives the uncertainty stated by the source.

The nature of the data set: amyloid nucleation score (Sup35N fusion, yeast selection) (log enrichment); library NNK3; higher = more nucleation; inactive = no reads after selection. In a few lines: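 Peptides of 20 random codons fused to Sup35N were expressed in psi-negative yeast, induced 24 hours with 100 μM copper sulfate, then grown 7 days at 30°C on medium lacking adenine and uracil. Input and output plasmid inserts were Illumina-sequenced. Nucleation score is the DiMSum log enrichment of output over input reads, centred on the mode score of non-aggregating sequences, excluding sequences with under 100 input reads. Random libraries had three technical output replicates.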
Take SIGNAIS: the amyloid nucleation score result is “inactive”.
On to INVDGKNNPSRREKTISMGG, for which the amyloid nucleation score entry is “inactive”.
Consider FTSGTMVFTRLFRSNQQWWS, for which the amyloid nucleation score stood at 1.53 ± 0.13.
The result for MSLIRYKLG reads “inactive”.
The result for MLIQPWSSSRNYVPPAEYW reads “inactive”; that for RGFFMVWLMNCLMRFRISDF, “inactive”; that for KLFISPLEMLISRISWTILH, 0.152 ± 0.77.
Regarding SWMYEFGSGTVKGGGKSELD, the amyloid nucleation score result is “inactive”.
The result for LSGNCKYRTLWFIGPYSHFC reads “inactive”.
For the substance YVILGQDDHEKT, the amyloid nucleation score entry is “inactive”.
The result for FTLFIQVV reads “inactive”.
The result for RMSVSSFRVVWSTIAYTKST reads “inactive”; that for VSYTYAGYSIRYIVFSS, “inactive”; that for TCECDGFLFFRRCFNWG, “inactive”.
The result for NVWQFRFANRSCWFRLDIVC reads “inactive”; that for TRSVFIHVYW, 0.095 ± 0.5; that for RVGTMLHGDWAYCHR, “inactive”.
SPQVLDRWDQFKWKFVFRGS: the amyloid nucleation score came to 0.584 ± 0.13.
The result for CDGPMSYMGLGTAGKR reads “inactive”; that for VRNLLKMTFR, “inactive”.
The result for MKEDSSYHWRLPHVTSTFVG reads “inactive”; that for AGYNYASKSNTLESQTACCS, “inactive”; that for VGDVKAISVGCVGVLEFSAA, “inactive”.
The result for VYCLFVTCLKGINQWMHDKS reads “inactive”; that for VEHDNKGISQAAVMFG, “inactive”; that for AGKYIQNYEVKGCLSAYRAG, “inactive”.
In the case of KDVPPFFSSSFNWAGLRKDK, the amyloid nucleation score stood at 0.436 ± 0.41.
To FWLRNHFHSIAGICMFVGYW belongs “inactive”; to SLKGVITSFVRNVFFNRAMY, “inactive”.
As to TAWGMLGGPE, the amyloid nucleation score entry is “inactive”.
The result for NVCGNDGNR reads “inactive”; that for ERMQHGSLSVRYFKKSSVSG, “inactive”.
For MSYVSFKFVERSMGNNSGGI, the amyloid nucleation score was -0.137 ± 0.64.
Consider KGCNYVNNSTAMLSRRSFYS, for which the amyloid nucleation score entry is “inactive”.
To PGKKL belongs -0.453 ± 1.4.
PRFYANRFTVLFLYNLDI came in with an amyloid nucleation score of -0.227 ± 1.1.
As for IMVWLRARSITYNQVDDRGS, the amyloid nucleation score result is “inactive”.
As for VFESCEYSRQVVGNFRDEM, the amyloid nucleation score result was “inactive”.
Consider FYMSNDCP, for which the amyloid nucleation score result is “inactive”.
As for AILYTRHG, the amyloid nucleation score was found to be 0.082 ± 0.38.
TVMVKSSYGLNCFGRSF yielded an amyloid nucleation score of 0.743 ± 0.13.
The result for VLGVVT reads “inactive”; that for VYAKVMSCGYGQRCVMEWFE, “inactive”; that for FDRSSGKRMVL, 0.466 ± 0.21.
The result for LYLQVALRTWLLSRWDLDDI reads “inactive”; that for GFIQRKNQRGVKKCRESYYY, “inactive”; that for GYPFSRLSSVV, “inactive”.
As for MYRCKKGGLCKLSGCTSKAL, the amyloid nucleation score entry was “inactive”.
In turn, SNIGVGKTYHRCTFFFWLIC displayed an amyloid nucleation score of 0.989 ± 0.24.
The result for PATMFI reads “inactive”; that for WKYDKGNFRALVW, “inactive”; that for LLLPIS, “inactive”.
For ICCTSS, the amyloid nucleation score result was “inactive”.
The result for RTMLTQFPCYWVSIHSVLVS reads “inactive”; that for RLYLNSFSHQNSCPRDLDGL, 0.969 ± 0.1; that for VKSFFSKGSCDNDTNINRRS, “inactive”.
PWALTMRNVLSKYMFGGGLR: the amyloid nucleation score entry is “inactive”.
For the substance TYLGDSFSILHLIQGDWFIE, the amyloid nucleation score entry was “inactive”.
On to SIILGCCLWLHLMH, for which the amyloid nucleation score was determined as 2.08 ± 0.059.
The result for IFVNWMVISVGLARFDVINA reads -0.579 ± 0.69.
To SCMGFVRQANIVG belongs “inactive”; to VINKRRWTSNGNCILEVRHG, “inactive”; to NVRVFFVSYVL, 0.885 ± 0.11.
In the case of INCSLENLINKDLWVSSQVC, the amyloid nucleation score result was “inactive”.
The result for SLESWFVTRRCSRYESTFMS reads “inactive”; that for YPCERYHRPHDQQNVDLTNL, “inactive”; that for SFSVTMPMPIYTTLNGPLTN, “inactive”.
The substance SRFKFTAESLISVTVERLFL returned an amyloid nucleation score of 0.626 ± 0.21.
As to CDEVLTDKLVWGREFILWSD, the amyloid nucleation score entry is “inactive”.
For LVDLRTVSYTLSQKMKFGGS, the amyloid nucleation score result is “inactive”.
HIVNLFRLYYIAMWGSVCHV: the amyloid nucleation score result was “inactive”.
In the case of RNYNYFINCVHWLYLVSWGL, the amyloid nucleation score was 0.605 ± 0.45.
Regarding FSQIPRYISNTKRWLWDYVN, the amyloid nucleation score result is “inactive”.
With ILNTVIGSQLDELPVAAFSS, the amyloid nucleation score entry was “inactive”.
The result for HGPAMTSRSRNTSVLVLVSP reads “inactive”.
On to GLCHMFGYDFTSMNCSSPGA, for which the amyloid nucleation score result is “inactive”.
To VFWLKVSVSLFPVLYGRS belongs “inactive”; to VSAFFRSKG, “inactive”.
To SAGWHTYRIKHPVSFVGKTI belongs “inactive”; to AVTDLDIFICSG, “inactive”.
As for DTYRV, the amyloid nucleation score result is “inactive”.
Regarding SLGTLISLPYTSA, the amyloid nucleation score result is “inactive”.
On to IVYMDECLYQFNGPDVVPMF, for which the amyloid nucleation score entry is “inactive”.
For NTSAPSNATAAFKAITN, the amyloid nucleation score result is “inactive”.
With IFTLCITGGV, the amyloid nucleation score result was “inactive”.
The result for LLSILTWVSIYRRCFSFTAR reads -0.758 ± 0.88.
As for NVYTYIRPRRVYK, the amyloid nucleation score result is “inactive”.
To AAMKGKSTHPHKGSFSLAIA belongs “inactive”; to VIARDDINCVRDGGQGLQIS, “inactive”.
The result for YYFRRVWTCPLIAQIIKSDL reads 0.39 ± 0.71.
For the substance RDRLKVLLLIFHSRDDTRTK, the amyloid nucleation score entry is “inactive”.
The result for NYMVFNIGVGCFTISNTK reads 3.14 ± 0.069.
Take MSSFTAYLLNLR: the amyloid nucleation score result is “inactive”.
For VLRQDISDDQSEAPEMNPHR, the amyloid nucleation score result is “inactive”.
With PLNDNRRVPAISVFKECQTS, the amyloid nucleation score entry is “inactive”.
To MNKNIRGYDLFKMRMMDWCM belongs “inactive”; to WYMGFSAVLVCFRLSRPVT, “inactive”; to KYFTLDMNRKSISYL, “inactive”.
In the case of KSYLFWSLI, the amyloid nucleation score result is “inactive”.
The result for TWLGLLCREGSSNWV reads “inactive”.
To TLFNLFRVKLIDEPNLAKWL belongs “inactive”; to YFVCVEEVRKYMEPSELGVR, “inactive”.
Consider LSHAG, for which the amyloid nucleation score entry is “inactive”.
To MIRTFKNSYISNGHCMVRRH belongs “inactive”; to DSYYFPRQGWMY, “inactive”.
YYWDKLFCMYKTAHGVSIYV: the amyloid nucleation score entry was “inactive”.
To SREVSLLKWMVIILCLW belongs “inactive”; to FMPPFASN, “inactive”.
With GGSFREVVNRRTRVGEDP, the amyloid nucleation score entry was “inactive”.
The result for NCRVCCRYVNSSPDV reads -0.974 ± 1.7; that for FLQAAYSGSRVAKCVSESSK, “inactive”.
FLFRNLVAWFMHSDLFFYGV: the amyloid nucleation score result was “inactive”.
The substance WACCGICSCL came in with an amyloid nucleation score of 2.02 ± 0.094.
To NGTALLKVTLAQYVGIVTLF belongs “inactive”.
Take HLRLRRTFGINLH: the amyloid nucleation score entry is “inactive”.
Regarding LQYFTYLGQCLKRETHHFLR, the amyloid nucleation score result was “inactive”.
The result for DERLVYGEKSCRFSLSYANM reads “inactive”; that for FWTCTSSPVLMRWRRSGFNV, “inactive”; that for HEMAYVVPTLVYYVYNTNSR, -0.076 ± 0.66.
To VRTRWFIAPVCVARGSLCLV belongs “inactive”; to NTWISMVCLLLLSDSNHTVV, 1.84 ± 0.082; to LGSDTPLKCVLSTMRMLRTG, “inactive”.
The result for FHSAL reads “inactive”.
As to RIVGRLVSRALWWV, the amyloid nucleation score entry was “inactive”.
With NWRQNEPYSPGSKSLGWHSF, the amyloid nucleation score entry is “inactive”.
On to NFSMMPTMLRRVWIGMCSSM, for which the amyloid nucleation score result is “inactive”.
In the case of IHYPKCVAGLCSRSLCTAVV, the amyloid nucleation score result was “inactive”.
As for NFVQFSTTISFDHNCHMVGC, the amyloid nucleation score entry was “inactive”.
For the substance NFLVSIHVFFYCWLSMFTYW, the amyloid nucleation score result is “inactive”.
The result for IMRLHC reads “inactive”; that for AIWLCCQLLLM, 2.63 ± 0.066.
